Laboratory results from US20250230224A1 (University of California, published 2025).

B1: 6F5.4 IgG (antibody, V domains shown)
VH: EVQLVPSGGNLVQPGGSLRLSCAATGPIDYHWMTWVRQAPGQGLEWVANINLDGTEKFYVDSVKGRFTVSRDNRKSSVFLQMNNLRVDDTAVYYCARLQWGERDGWLSPWGQGTLVTVSS
VL: DIVMTQSPPSLSASVGDRVRLTCRASQSIGRSLNWYQQKPGKAPKLLIYDASALHSGVPSRFSGSGSGTDFTLTISGLQPEDFATYYCQQTNDLPVTFGGGTKLEIKR
B2: Hu6F11 IgG (antibody, V domains shown)
VH: EVQLVESGGGLVKPGGSLRLSCAASGFTFSNYGMSWVRQAPGKGLEWVASISSGGSYIYYPDSVKGRFTISRDNAKNSLYLQMNSLRAEDTAVYYCARRKGYDSLYWYFDVWGQGTLVTVSS
VL: DVVMTQSPSSLSAFVGDRVTITCRASQGIRSYLAWFQQKPGKAPKLLIYAASTLQSGVPSRFSGSGSGTEFTLTVSGLQPEDFATYYCQQYNSYPLTFGGGTRLEIKR
B3: 4C4 IgG (antibody, V domains shown)
VH: QVQLVESGPGLVKPSQTLSLTCSVSGASINNSPYFWNWFRQFPGKGLEWIGYIYWSGSTNYNPSLKSRLAMSVDTSKNQFSLKLTSATAADTAVYYCARDQGGGTVVKENWFDPWGQGTLVTVSS
VL: DIVMTQSPSSLSASVGDRLTMTCQASQDIGKHLNWYQQKAGKPPKLLIYGASNLKTGVPSRFSAGVSWTDFTFTISNVQPEDVATYYCQQSYSTPPTFGQGTKVEIK
B4: 4C4.1 IgG (antibody, V domains shown)
VH: QVQLVESGPGLVKPSQTLSLTCSVSGASINNSPYFWNWFRQFPGKGLEWIGYIYWSGSTNYNPSLKSRLAMSVDTSKNQFSLKLTSATAADTAVYYCARDQGGGTVVKENWFDPWGQGTLVTVSS
VL: ETTLTQSPSSLSASVGDRVSITCRASQSISNYLNWYQQKPGKAPKLLIYAASSLQSGVPSRFSGSGSGTDFTLTISSLQPEDFATYYCQQSYSDPPTFGQGTKVEIK
B5: 4C4.4 IgG (antibody, V domains shown)
VH: QVQLQESGPGLVKPSQTLSLTCTVSGASISNSPYFWNWFRQFPGKGLEWIGYIYWSGSTNYNPSLKSRLAMSVDTSKNQFSLKLTSATAADTAVYYCARDQGGGTVVKENWFDPWGQGTLVTVSS
VL: DIVMTQSPSSLSASVGDRLTMTCQASQDIGKHLNWYQQKAGKPPKLLIYGASNLKTGVPSRFSAGVSWTDFTFTISNVQPEDVATYYCQQSYSTPPTFGQGTKVEIKR
B6: 4C4.2 IgG (antibody, V domains shown)
VH: QVQLVESGPGLVKPSQTLSLTCSVSGASINNSPYFWNWFRQFPGKGLEWIGYIYWSGSTNYNPSLKSRLAMSVDTSKNQFSLKLTSATAADTAVYYCARDQGGGTVVKENWFDPWGQGTLVTVSS
VL: DIQMTQSPSTLSASVGDRVTITCRASQSIGTYLNWYQQKPGRAPTLLVSRTSNLHTGVPSRFSGDGSGSHFSLTIDSLQPEDFATYYCQQSHTSPVTFGQGTKVEIK
B7: 8DC4.1 IgG (antibody, V domains shown)
VH: QVQLQESGPGLVKPSQTLSLTCTVSGGSISSDNYFWTWIRQSPGKGLEWLGHISYSGRSYTNLSLKRRLTISVDTSKNQFSLNLNSVTAADTAVYYCARERLPPGRGYDMDVWGQGTTVTVSS
VL: not shown
B8: 8DC4.4 IgG (antibody, V domains shown)
VH: QVQLQESGPGLVKPSQTLSLTCTVSGGSISSDNYFWTWIRQSPGKGLEWLGHISYSGRSYTNLSLKRRLTISVDTSKNQFSLNLNSVTAADTAVYYCARERLPPGRGYDMDVWGQGTTVTVSS
VL: DIVMTQSPSSVSASVGDRVTITCRASRDISIYLNWYQQKPGKAPKLLIYAASNLETGVPSRFSGSGSGTDFTLTISSLQPEDVATYYCQQSYNTPLTFGGGTKLEIKR
B9: Hu6F13.4 IgG (antibody, V domains shown)
VH: QVQLVQSGAEVKKPGASVKVSCKASGYSFTSYWMHWVRQAPGQGLEWIGFINPINGGIIYNEKFRFRATLTVDTSISTAYMELSRLRSDDTAVYYCARAGYYGSSRHFDVWGQGTLLTVSS
VL: ETTLTQSPSSLSASVGDRVTITCRASQGIRNYLAWYQQKPGKAPKLLIYDASNLETGVPSRFSGSGSGTDFTFTISSLQPEDFATYYCLQTSSTPWTFGQGTKVDIKR

How the values were obtained:
[1] = target: T1, BoNT/F1 (UniProt A7GBG3 1-1278); experiment: KinExA, IgG
T1 sequence: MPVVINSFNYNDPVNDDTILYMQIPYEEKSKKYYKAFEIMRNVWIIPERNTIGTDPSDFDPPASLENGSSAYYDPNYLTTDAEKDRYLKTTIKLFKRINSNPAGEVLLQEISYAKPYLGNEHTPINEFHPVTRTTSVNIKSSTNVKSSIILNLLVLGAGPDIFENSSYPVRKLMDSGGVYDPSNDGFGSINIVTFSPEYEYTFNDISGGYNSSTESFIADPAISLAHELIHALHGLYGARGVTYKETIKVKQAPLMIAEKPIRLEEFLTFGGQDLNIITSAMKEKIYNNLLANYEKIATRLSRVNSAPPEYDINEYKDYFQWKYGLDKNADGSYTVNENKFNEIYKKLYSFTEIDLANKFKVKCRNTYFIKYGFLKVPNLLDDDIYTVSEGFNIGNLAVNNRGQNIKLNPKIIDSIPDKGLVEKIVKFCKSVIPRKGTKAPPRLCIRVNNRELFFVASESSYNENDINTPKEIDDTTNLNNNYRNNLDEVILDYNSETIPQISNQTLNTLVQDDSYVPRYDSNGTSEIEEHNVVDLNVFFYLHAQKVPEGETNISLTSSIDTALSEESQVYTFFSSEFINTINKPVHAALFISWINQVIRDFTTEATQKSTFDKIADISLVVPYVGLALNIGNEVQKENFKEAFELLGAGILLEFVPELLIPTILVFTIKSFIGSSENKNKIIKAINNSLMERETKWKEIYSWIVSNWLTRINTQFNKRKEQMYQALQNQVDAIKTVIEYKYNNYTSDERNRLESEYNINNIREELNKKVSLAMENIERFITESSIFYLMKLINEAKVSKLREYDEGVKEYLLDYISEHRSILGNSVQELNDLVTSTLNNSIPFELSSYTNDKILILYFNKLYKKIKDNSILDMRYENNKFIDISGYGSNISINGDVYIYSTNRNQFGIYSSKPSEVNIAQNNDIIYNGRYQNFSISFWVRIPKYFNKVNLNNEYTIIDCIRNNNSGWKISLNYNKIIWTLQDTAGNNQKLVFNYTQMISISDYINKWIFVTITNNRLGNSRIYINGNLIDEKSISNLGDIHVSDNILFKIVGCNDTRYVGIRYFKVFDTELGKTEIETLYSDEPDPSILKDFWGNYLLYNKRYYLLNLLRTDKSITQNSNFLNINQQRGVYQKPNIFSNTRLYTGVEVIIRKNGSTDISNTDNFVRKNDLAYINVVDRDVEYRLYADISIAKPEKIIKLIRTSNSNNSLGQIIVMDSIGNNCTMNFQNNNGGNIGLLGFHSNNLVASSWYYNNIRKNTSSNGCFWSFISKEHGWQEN

[2] = target: T2, Botulinum neurotoxin serotype C (BoNT/C) (Clostridium botulinum, UniProt P18640 2-1291); experiment: KinExA flow fluorimetry, solution phase, IgG
T2 sequence: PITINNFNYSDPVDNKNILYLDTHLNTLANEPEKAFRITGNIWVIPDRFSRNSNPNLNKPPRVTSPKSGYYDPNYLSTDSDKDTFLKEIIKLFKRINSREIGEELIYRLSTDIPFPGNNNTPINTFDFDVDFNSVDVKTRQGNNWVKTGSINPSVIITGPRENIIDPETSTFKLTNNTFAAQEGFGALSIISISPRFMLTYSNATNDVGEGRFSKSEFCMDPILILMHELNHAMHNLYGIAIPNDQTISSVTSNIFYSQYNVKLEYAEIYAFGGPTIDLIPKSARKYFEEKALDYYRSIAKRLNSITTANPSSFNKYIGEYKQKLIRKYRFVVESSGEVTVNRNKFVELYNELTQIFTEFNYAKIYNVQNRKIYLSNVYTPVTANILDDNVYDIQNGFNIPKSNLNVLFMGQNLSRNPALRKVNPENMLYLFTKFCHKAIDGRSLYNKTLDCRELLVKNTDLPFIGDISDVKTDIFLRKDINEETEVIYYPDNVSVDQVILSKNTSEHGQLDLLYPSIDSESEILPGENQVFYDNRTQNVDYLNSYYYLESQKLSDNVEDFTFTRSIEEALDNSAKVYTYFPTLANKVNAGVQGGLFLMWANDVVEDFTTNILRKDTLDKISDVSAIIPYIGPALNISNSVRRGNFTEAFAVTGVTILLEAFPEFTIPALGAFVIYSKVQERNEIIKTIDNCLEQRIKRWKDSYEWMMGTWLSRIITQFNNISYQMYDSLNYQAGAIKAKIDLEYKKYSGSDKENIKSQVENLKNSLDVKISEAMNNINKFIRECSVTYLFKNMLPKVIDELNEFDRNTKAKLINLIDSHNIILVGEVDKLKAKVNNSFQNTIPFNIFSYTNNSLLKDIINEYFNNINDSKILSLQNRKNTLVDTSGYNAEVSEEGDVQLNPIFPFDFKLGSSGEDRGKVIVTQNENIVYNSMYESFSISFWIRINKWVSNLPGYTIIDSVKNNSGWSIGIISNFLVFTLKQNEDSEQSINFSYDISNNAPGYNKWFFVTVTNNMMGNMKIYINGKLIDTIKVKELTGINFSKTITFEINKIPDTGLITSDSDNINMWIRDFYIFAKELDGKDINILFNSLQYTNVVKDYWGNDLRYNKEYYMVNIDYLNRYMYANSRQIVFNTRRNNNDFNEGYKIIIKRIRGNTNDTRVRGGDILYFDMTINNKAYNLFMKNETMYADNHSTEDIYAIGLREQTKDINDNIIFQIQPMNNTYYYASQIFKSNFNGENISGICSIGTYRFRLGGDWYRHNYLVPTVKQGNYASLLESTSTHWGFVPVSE

[3] = target: Mosaic botulinum neurotoxin BoNT/DC (Clostridium botulinum); experiment: KinExA flow fluorimetry, solution phase, IgG
[4] = target: T3, Botulinum neurotoxin serotype D (BoNT/D) (Clostridium botulinum, UniProt P19321 2-1276); experiment: KinExA flow fluorimetry, solution phase, IgG
T3 sequence: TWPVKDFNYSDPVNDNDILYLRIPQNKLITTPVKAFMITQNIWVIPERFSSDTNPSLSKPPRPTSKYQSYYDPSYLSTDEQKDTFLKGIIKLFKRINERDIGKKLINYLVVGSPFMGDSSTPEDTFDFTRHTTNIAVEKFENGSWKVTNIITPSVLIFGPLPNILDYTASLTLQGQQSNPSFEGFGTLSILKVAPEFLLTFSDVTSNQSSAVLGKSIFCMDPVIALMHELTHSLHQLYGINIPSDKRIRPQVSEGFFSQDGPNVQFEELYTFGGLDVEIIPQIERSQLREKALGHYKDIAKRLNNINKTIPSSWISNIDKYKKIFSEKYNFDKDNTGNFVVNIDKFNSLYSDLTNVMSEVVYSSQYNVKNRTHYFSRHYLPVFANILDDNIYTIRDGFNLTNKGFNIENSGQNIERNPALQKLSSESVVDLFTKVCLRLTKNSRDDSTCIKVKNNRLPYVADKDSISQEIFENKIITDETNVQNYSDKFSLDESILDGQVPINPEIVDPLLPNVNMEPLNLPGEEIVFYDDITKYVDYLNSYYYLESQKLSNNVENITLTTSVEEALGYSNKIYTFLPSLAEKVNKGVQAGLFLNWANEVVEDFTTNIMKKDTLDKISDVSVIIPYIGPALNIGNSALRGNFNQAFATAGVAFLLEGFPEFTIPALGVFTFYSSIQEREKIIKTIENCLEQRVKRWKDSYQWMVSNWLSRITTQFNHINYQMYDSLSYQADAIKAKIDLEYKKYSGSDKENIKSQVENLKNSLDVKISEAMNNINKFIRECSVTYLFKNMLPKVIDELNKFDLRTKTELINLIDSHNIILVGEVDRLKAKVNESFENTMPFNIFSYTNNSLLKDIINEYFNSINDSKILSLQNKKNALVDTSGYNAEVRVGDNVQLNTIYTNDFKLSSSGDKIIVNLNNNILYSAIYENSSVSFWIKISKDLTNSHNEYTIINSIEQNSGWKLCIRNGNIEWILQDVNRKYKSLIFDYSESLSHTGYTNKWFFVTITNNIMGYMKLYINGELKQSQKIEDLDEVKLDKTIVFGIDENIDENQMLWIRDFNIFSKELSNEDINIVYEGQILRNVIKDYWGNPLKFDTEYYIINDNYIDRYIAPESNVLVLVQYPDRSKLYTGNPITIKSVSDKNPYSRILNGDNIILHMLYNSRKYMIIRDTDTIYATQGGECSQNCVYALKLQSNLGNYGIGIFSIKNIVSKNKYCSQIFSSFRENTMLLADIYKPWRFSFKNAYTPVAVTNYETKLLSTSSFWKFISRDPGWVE

| Binder | Kd [1] [nM] | Kd [2] [nM] | Kd [3] [nM] | Kd [4] [nM] |
| --- | --- | --- | --- | --- |
| B1 | 0.0149 |  |  |  |
| B2 | 0.00071 |  |  |  |
| B3 |  | 0.888 | 0.597 |  |
| B4 |  | 0.57 | 0.058 | 0.898 |
| B5 |  | 0.016 |  |  |
| B6 |  | 0.035 | 0.126 | 0.254 |
| B7 |  | 1.4 | 1.4 | 1.4 |
| B8 |  | 0.136 |  | 0.157 |
| B9 | 0.173 |  |  |  |
